In patent US20180265560A1 (CASE WESTERN RESERVE UNIVERSITY, published 2018):
Where a chain is given by its changes, count along the chain named. Each block holds one binder with its values, some of them ahead of it. Bridges are numbered along the chain shown (N, C = ends). Where no end group is shown, it is not given here.

What was measured:
Type 1 IGF-I receptor = biological target: T1, Type 1 IGF-I receptor (UniProt P08069 31-1367, limits assumed); test: competitive receptor-binding assay, against wild-type human insulin as reference
T1 construct: also called IGF-1R; Type 1 insulin-like growth factor receptor

[1] = biological target: T2, A isoform of the insulin receptor (UniProt P06213-2 28-1370, limits assumed); test: competitive displacement of radiolabelled tracer, receptor on microtiter plates coated with AU5 IgG
T2 construct: isoform A lacks exon 11; also called IR-A
Procedure: The assay employed the A isoform of the insulin receptor. […] The protocol for assay of receptor-binding activities was as follows. Microtiter strip plates (Nunc Maxisorb) were incubated overnight at 4° C. with AU5 IgG (100 μl/well of 40 mg/ml in phosphate-buffered saline). Binding data were analyzed by a two-site sequential model.

fold lower affinity than wild-type human insulin (Type 1 IGF-I receptor): 5 fold
Kd [1]: 0.06 nM
B1: SCI-57DP (ligand)
chain: FVNQHLCGSHLVEALYLVCGERGFFYTDPTEEGPRRGIVEQCCHSICSLEQLENYCN
modifications: disulfide 19-56, 42-47, 7-43
notes: Made in Pichia pastoris; the cleaved product has 57 residues with native disulfide bridges; also called SCI-2; Thermalin-biphasic

Kd [1]: 0.08 nM
B2: SCI-57PE (ligand)
chain: B1 chain with D28P, P29E
modifications: disulfide 19-56, 42-47, 7-43
notes: Made in Pichia pastoris; the cleaved product has 57 residues with native disulfide bridges; also called SCI-1; Thermalin-biphasic
